Test results published in article PMC6774794 (Nature structural & molecular biology, 2019).

T1: dynein-2 intermediate chain WDR60 (human, UniProt Q8WVS4)
T1 sequence: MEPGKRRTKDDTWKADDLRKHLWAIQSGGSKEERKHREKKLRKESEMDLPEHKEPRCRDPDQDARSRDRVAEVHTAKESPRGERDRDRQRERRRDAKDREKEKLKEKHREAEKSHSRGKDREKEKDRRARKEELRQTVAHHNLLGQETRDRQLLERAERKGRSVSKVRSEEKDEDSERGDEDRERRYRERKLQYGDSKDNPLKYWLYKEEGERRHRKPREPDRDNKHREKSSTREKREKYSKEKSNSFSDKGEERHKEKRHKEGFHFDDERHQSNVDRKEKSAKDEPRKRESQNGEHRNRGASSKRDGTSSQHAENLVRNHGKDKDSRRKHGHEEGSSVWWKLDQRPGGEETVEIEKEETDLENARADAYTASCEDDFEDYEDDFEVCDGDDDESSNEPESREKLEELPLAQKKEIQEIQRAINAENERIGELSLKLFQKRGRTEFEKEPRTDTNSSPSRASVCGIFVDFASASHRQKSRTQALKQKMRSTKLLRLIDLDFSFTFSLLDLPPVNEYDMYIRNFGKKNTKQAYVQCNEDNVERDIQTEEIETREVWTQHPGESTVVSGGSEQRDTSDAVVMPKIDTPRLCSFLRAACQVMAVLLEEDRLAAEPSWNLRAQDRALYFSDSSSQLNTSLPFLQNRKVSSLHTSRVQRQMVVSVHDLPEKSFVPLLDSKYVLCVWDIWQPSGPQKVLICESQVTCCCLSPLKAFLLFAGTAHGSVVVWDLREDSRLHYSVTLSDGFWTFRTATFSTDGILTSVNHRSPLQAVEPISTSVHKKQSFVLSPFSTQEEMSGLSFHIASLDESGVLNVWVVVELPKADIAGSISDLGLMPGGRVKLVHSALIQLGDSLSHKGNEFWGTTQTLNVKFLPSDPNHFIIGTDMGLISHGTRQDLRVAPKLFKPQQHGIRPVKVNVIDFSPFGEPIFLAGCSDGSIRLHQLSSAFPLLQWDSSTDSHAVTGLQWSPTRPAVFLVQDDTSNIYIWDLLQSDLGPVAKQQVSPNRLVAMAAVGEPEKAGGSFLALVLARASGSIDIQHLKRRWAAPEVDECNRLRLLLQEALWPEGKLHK


Assays:
[1] = biological target: dynein light chain LC8 (DYNLL1/2) (human) (UniProt P63167); assay: cryo-EM structure
[2] = biological target: T1, dynein-2 intermediate chain WDR60; assay: cryo-EM structure

Chain of dynein light chain LC8 (DYNLL1/2) (P63167 whole entry): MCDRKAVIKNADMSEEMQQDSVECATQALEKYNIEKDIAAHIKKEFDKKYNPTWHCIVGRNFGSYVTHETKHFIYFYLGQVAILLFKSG

Row | stoichiometry N [1] | binding result [2] | Molecule
1 | 2 |  | dynein light chain LC8 (DYNLL1/2) (from UniProt P63167) (natural protein)
2 |  | binds | dynein-2 intermediate chain WDR34 (natural protein) MATRAQPGPLSQAGSAGVAALATVGVASGPGPGRPGPLQDETLGVASVPSQWRAVQGIRWETKSCQTASIATASASAQARNHVDAQVQTEAPVPVSVQPPSQYDIPRLAAFLRRVEAMVIRELNKNWQSHAFDGFEVNWTEQQQMVSCLYTLGYPPAQAQGLHVTSISWNSTGSVVACAYGRLDHGDWSTLKSFVCAWNLDRRDLRPQQPSAVVEVPSAVLCLAFHPTQPSHVAGGLYSGEVLVWDLSRLEDPLLWRTGLTDDTHTDPVSQVVWLPEPGHSHRFQVLSVATDGKVLLWQGIGVGQLQLTEGFALVMQQLPRSTKLKKHPRGETEVGATAVAFSSFDPRLFILGTEGGFPLKCSLAAGEAALTRMPSSVPLRAPAQFTFSPHGGPIYSVSCSPFHRNLFLSAGTDGHVHLYSMLQAPPLTSLQLSLKYLFAVRWSPVRPLVFAAASGKGDVQLFDLQKSSQKPTVLIKQTQDESPVYCLEFNSQQTQLLAAGDAQGTVKVWQLSTEFTEQGPREAEDLDCLAAEVAA
